4 molecules from patent US20220016257A1 (Daiichi Sankyo, published 2022) can be followed below.

Assay [1] has as its target T1, cynomolgus monkey CDH6 (full-length, on cells) (cynomolgus monkey, UniProt P55285 54-790 (human entry)).
T1 construct: Expressed from pcDNA3.1-cynoCDH6 on transfected cells; also called cynoCDH6
T1 sequence: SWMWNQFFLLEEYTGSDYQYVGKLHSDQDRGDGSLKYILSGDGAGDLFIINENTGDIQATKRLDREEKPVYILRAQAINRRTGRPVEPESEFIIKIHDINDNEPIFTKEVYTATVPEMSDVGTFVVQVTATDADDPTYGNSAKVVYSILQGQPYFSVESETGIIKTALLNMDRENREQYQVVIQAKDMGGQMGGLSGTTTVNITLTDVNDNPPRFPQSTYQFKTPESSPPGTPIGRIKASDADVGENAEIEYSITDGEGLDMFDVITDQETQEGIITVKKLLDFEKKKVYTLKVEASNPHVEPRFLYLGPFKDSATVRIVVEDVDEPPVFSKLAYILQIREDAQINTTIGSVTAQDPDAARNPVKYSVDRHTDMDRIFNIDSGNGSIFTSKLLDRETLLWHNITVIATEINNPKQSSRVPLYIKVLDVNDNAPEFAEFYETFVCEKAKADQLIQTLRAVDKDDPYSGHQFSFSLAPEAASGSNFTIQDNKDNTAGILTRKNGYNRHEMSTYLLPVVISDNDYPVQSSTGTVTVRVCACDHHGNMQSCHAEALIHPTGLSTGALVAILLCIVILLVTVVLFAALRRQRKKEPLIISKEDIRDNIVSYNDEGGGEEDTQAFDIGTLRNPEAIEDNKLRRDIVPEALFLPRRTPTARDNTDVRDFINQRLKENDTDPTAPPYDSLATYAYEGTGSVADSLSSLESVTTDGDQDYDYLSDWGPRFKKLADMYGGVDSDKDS
Kind of assay: flow cytometry, 293α cells transiently transfected with pcDNA3.1-cynoCDH6, PE anti-human IgG Fcγ F(ab')2, mean fluorescence intensity. The protocol:
(§1) The CDH6-binding activity of the human chimeric anti-CDH6 antibody chG019 purified in 4)-2 was confirmed by flow cytometry. […] The cells were cultured overnight under conditions of 37° C. and 5% CO₂, treated with TrypLE Express (Thermo Fisher Scientific Inc.), and thereafter, a cell suspension was prepared. chG019 was added to the suspension of each of these cells. The cells were left standing at 4° C. for 1 hour. Thereafter, the cells were washed twice with PBS supplemented with 5% FBS, and then suspended by the addition of PE-labeled F(ab′)2 Fragment anti-human IgG, Fcγ antibody (Jackson ImmunoResearch Laboratories, Inc.) that had been 500-fold diluted with PBS supplemented with 5% FBS. The cells were left standing at 4° C. for 1 hour. The cells were washed twice with PBS supplemented with 5% FBS, and then re-suspended in PBS supplemented with 5% FBS, followed by detection using a flow cytometer (Canto II; BD Biosciences). The data was analyzed using FlowJo (TreeStar, Inc.). […] In FIG. 4, the abscissa depicts antibody concentration, and the ordinate depicts the amount of the antibody bound, based on mean fluorescence intensity.
A general note: Flow cytometry measures light scatter and fluorescence of single cells or particles in a stream.

The target in assay [2] is T2, human CDH6 (full-length, on cells) (human, UniProt P55285 54-790).
T2 construct: also called hCDH6; full-length hCDH6
T2 sequence: T1 sequence with H300Y, R457H, G707A
In words: flow cytometry, 293α cells transiently transfected with pcDNA3.1-hCDH6, PE anti-human IgG Fcγ F(ab')2, mean fluorescence intensity. How it is done: as §1

Assay [3] addresses T3, Recombinant Human Cadherin-6 (KCAD)/Fc Chimera (RD-SYSTEMS) (human, UniProt P55285 54-615, limits assumed).
T3 construct: Captured by an anti-histidine antibody; also called human CDH6; the antigen; not shown: Fc portion (and the histidine tag implied by anti-histidine capture) of the bought chimera
T3 sequence: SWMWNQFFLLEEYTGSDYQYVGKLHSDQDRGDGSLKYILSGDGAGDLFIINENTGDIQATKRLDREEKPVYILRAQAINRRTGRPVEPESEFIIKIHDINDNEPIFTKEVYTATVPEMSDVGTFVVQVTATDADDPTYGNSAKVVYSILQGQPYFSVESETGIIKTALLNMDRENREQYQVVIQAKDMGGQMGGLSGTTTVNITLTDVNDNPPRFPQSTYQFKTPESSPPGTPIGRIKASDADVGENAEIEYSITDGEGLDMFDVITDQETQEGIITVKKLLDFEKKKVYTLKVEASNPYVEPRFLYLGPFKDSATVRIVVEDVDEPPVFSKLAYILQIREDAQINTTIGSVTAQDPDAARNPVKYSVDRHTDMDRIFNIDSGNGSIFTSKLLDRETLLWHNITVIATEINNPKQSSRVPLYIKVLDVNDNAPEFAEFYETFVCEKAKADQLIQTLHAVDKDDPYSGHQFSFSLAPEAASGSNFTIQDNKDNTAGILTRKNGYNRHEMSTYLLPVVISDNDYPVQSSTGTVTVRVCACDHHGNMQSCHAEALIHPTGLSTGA
Kind of assay: SPR (Biacore T200), antigen captured by immobilized anti-histidine antibody, antibody as analyte, steady state affinity model. The protocol: The dissociation constant of a construct of each of H01L02A, H11L02A and H31L02A prepared in Example 7)-4 and human CDH6 was measured by using Biacore T200 (GE Healthcare Biosciences Corp.), according to a capture method, which comprises capturing the antigen as a ligand with Anti-histidine antibody immobilized by means of a His Capture Kit (manufactured by GE Healthcare Bioscience) and then measuring the dissociation constant using an antibody as an analyte. As the sensor chip, CM5 (manufactured by GE Healthcare Bioscience) was used. As the running buffer, buffer containing 20 mM Tris-HCl, 150 mM NaCl, 1 mM CaCl₂ and 0.05% Surfactant P20 (pH7.4), was used. On the chip, a 1 μg/mL Recombinant Human Cadherin-6 (KCAD)/Fc Chimera (RD-SYSTEMS) was added at a rate of 10 μL/minute for 60 seconds, and a dilution series solution (0.11 to 81 μg/mL) of the antibody prepared in Example 7)-4 was then added at a flow rate of 30 μl/min for 180 seconds. Subsequently, the dissociation phase was monitored for 180 seconds. As a regeneration solution, a Glycine 1.5 (GE Healthcare Bioscience made by the company) was added at a flow rate of 20 μl/min for 30 seconds. A Steady State Affinity model was used in data analysis, and the dissociation constant (KD) was calculated.

Changes are numbered by the printed parent chain. Names and notes keep the numbering of the source.

B1: human chimeric anti-CDH6 antibody chG019 (antibody, human IgG1)
heavy: not shown
light: DIQMTQSPSLLSASVGDRVTLNCKASQNIYKNLAWYQQKLGEGPKLLIYDANTLQTGIPSRFSGSGSGSDFTLTISSLQPEDVATYFCQQYYSGWAFGGVTNLELKRAVAAPSVFIFPPSDEQLKSGTASVVCLLNNFYPREAKVQWKVDNALQSGNSQESVTEQDSKDSTYSLSSTLTLSKADYEKHKVYACEVTHQGLSSPVTKSFNRGEC
notes: Human IgG1/kappa constant regions; also called chimeric G019 antibody; chG019 antibody
With B1, the “EC50 (read off the curve)” value in assay [1] and in assay [2] was about 0.01 µg/mL each time.

B2: humanized anti-CDH6 antibody H01L02A (antibody, human IgG1, kappa, L234A L235A)
heavy: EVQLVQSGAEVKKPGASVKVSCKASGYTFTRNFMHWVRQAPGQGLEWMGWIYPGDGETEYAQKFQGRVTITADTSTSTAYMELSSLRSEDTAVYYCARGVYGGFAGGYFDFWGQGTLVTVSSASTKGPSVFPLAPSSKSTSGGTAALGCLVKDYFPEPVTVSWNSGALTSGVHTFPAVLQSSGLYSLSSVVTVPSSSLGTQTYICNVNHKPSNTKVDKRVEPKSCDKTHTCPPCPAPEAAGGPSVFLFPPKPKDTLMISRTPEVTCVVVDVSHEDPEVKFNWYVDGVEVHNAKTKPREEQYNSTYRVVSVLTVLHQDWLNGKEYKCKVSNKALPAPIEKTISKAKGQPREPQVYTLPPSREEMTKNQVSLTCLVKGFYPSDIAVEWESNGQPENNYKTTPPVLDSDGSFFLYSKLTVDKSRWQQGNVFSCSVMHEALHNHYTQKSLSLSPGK
light: DIQMTQSPSSLSASVGDRVTITCKASQNIYKNLAWYQQKPGKAPKLLIYDANTLQTGVPSRFSGSGSGSDFTLTISSLQPEDFATYFCQQYYSGWAFGQGTKVEIKRTVAAPSVFIFPPSDEQLKSGTASVVCLLNNFYPREAKVQWKVDNALQSGNSQESVTEQDSKDSTYSLSSTLTLSKADYEKHKVYACEVTHQGLSSPVTKSFNRGEC
notes: hH01A heavy chain (hH01 with L234A/L235A, EU index; IgG1 LALA) and hL02 light chain; also called H01L02A antibody
As to B2, in assay [3], the dissociation constant Kd came out at 2.8 nM.

B3: humanized anti-CDH6 antibody H31L02A (antibody, human IgG1, kappa, L234A L235A, V domains shown)
VH: EVQLVQSGAEVKKPGASVKVSCKASGYTFTRNFMHWVRQAPGQGLEWMGWIYPGDGETEYASKFQGRVTITADTSTSTAYMELSSLRSEDTAVYYCARGVYGGAAGGYFDFWGQGTLVTVSS
VL: DIQMTQSPSSLSASVGDRVTITCKASQNIYKNLAWYQQKPGKAPKLLIYDANTLQTGVPSRFSGSGSGSDFTLTISSLQPEDFATYFCQQYYSGWAFGQGTKVEIKR
notes: hH31A heavy chain (hH01 with the 81st glutamine changed to serine and the 123rd phenylalanine to alanine, IgG1 LALA) and hL02 light chain; also called H31L02A antibody
In the case of B3, in assay [3], the Kd was 11.1 nM.

B4: humanized anti-CDH6 antibody H11L02A (antibody, human IgG1, kappa, L234A L235A, V domains shown)
VH: B3 VH with Y52A, S62Q, A104F
VL: B3 VL
notes: hH11A heavy chain (hH01 with the 71st tyrosine changed to alanine, IgG1 LALA) and hL02 light chain; also called H11L02A antibody
With B4, in assay [3], the Kd is 43.1 nM.

What is called EC50 (read off the curve) is the midpoint of the concentration-response curve. Broadly, the Kd is a measure of binding affinity in units of concentration.
